Measurements reported in publication PMC10620989 (2023).

Biological target: Bim BH3 peptide (FITC-labeled) BH3 (Homo sapiens, UniProt O43521, FITC-labeled Bim BH3 peptide, GST-tagged Mcl-1)
Experiment: fluorescence polarization

B1: Mcl-1 (GST-tagged) 152-309 (protein)
chain: EDDLYRQSLEIISRYLREQATGSKDSKPLGEAGAAGRRALETLRRVGDGVQRNHETAFQGMLRKLDIKNEGDVKSFSRVMVHVFKDGVTNWGRIVTLISFGAFVAKHLKSVNQESFIEPLAETITDVLVRTKRDWLVKQRGWDGFVEFFHVQDLEGGI
Kd: 12.4 nM
